This note sets out measurements from patent US8981056.

This data set concerns the target Aspergillus terreus LOVF Polyketide Synthase.

B1: LovD G7 mutant (protein)
chain: MGSIIDAAAAAGPVVLMETAFRKAVESRQIPGAVIMARDASGNLNYTRCFGARTVRRDENNQLPPLQVDTPCRLASATKLLTTIMVLQCMERGLVDLDETVDRLLPDLSAMPVLEGFDDAGNARLRERRGKITLRHLLTHTSGLSYVFLHPLLREYMAQGYLQSAEKFGIQSRLAPPAVNDPGAEWIYGTNLDWAGKLVERATGLDLEQYLQENICAPLGITDMTFKLQQRPDMLARRADQTHRNSADGRLRYDDSVYFRADGEECFGGQGVFSSPGSYMKVLHSLLKRDGLLLQPQTVDLMFQPALEPRLEEQMNQHMDASPHINYGGPMPMFLRRSFGLGGIIALEDLDGENWRRKGSLTFGGGPNIVWQIDPKAGLCTLAFFQLEPWNDPVCRDLTRTFEHAIYAQYQQG
As for B1, the “activities towards LovF (kinetic assay for LVA synthesis with LovF as acyl donor)” value is “The G7 mutant exhibited a 27-fold decrease in activities towards LovF compared to the G0 parent”.
